For one substance, Pseudovirus Neutralization results are on record in patent US20240025971A1.

For this assay, the target named is SARS-CoV-2 Wuhan D614G full-length Spike protein (SARS-CoV-2) (UniProt P0DTC2). Kind of assay: cell-based or functional assay.

As for “Anti-Nucleocapsid (Neg Control) (antibody)”, the Pseudovirus Neutralization was > 50 µg/mL.
